# Assay results reported in patent publication US10562947B2, “Compositions and methods for preventing or treating diseases, conditions or processes characterized by aberrant fibroblast proliferation and extracellular matrix deposition” (MOERAE MATRIX, INC., priority 2011, dated 2020).
# Tests used:
# Experiment in all cases: Kinase Profiling Assay
# Format in all cases: biochemical
# Details in all cases: 100 μM peptide
# Aurora-B(h) = Aurora-B(h) (Homo sapiens, UniProt Q96GD4)
# Description: (§1) Every kinase activity measurement was conducted in duplicate.
# (§2) In addition to determining the IC50 of the compound, the specificity of MK2 inhibitory peptides was assessed by examining activities of all 266 human kinases available for testing in the Millipore kinase profiling service (Table 1).
# CSK(h) = CSK(h) (Homo sapiens, UniProt P41240)
# Description: as §1, §2
# EphA3(h) = target: T1, EphA3(h) (Homo sapiens, UniProt P29320)
# T1 sequence (P29320 21-983): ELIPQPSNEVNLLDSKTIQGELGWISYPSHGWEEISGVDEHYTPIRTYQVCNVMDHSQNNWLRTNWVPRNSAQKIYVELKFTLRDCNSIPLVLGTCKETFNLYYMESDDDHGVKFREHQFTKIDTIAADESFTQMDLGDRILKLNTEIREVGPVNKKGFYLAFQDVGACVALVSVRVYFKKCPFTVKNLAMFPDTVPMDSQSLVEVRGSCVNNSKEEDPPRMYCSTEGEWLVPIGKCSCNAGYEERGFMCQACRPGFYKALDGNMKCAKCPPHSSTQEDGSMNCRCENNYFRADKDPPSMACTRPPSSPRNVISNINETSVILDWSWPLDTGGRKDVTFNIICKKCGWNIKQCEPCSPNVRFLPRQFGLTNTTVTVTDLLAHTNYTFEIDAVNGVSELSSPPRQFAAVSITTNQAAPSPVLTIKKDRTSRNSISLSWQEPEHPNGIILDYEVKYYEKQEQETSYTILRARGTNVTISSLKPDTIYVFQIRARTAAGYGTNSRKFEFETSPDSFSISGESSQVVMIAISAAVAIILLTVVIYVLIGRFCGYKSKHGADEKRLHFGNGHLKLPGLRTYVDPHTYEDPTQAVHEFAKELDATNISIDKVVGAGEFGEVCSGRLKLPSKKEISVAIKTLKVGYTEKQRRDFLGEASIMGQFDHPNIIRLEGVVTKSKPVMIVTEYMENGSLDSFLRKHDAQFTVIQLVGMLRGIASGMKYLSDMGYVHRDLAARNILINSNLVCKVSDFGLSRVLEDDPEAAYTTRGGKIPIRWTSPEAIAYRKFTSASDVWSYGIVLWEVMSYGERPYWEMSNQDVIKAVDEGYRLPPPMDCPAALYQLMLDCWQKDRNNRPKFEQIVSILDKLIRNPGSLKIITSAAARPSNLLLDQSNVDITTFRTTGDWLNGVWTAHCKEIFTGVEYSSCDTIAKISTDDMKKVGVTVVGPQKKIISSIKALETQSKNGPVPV
# Description: as §1, §2
# FGFR2(h) = FGFR2(h) (Homo sapiens, UniProt P21802)
# Description: as §1, §2
# FGFR3(h) = FGFR3(h) (Homo sapiens, UniProt P22607)
# Description: as §1, §2
# MEK1(h) = MEK1(h) (Homo sapiens, UniProt Q02750)
# Description: as §1, §2
# MST2(h) = target: T2, MST2(h) (Homo sapiens, UniProt Q13188)
# T2 sequence (Q13188 1-491): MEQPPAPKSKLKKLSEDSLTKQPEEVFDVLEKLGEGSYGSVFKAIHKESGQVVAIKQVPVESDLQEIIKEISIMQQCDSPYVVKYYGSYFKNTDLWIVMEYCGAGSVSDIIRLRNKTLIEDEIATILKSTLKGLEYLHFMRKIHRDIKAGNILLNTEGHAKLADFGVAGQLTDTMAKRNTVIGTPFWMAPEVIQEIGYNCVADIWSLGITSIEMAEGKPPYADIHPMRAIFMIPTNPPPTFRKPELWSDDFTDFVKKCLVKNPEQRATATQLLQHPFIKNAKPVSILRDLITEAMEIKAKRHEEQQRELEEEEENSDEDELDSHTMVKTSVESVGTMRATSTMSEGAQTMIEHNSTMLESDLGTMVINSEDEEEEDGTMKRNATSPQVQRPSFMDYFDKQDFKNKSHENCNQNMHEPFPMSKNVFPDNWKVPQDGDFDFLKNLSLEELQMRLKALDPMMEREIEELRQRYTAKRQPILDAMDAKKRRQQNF
# Description: as §1, §2
# PASK(h) = PASK(h) (Homo sapiens, UniProt Q96RG2)
# Description: as §1, §2
# RIPK2(h) = target: T3, RIPK2(h) (Homo sapiens, UniProt O43353)
# T3 construct: purchased Millipore (IC50 Profiler Express service)
# Description: as §1, §2
# Ret(V804M)(h) = target: T4, Ret(V804M)(h) (Homo sapiens, UniProt P07949, V804M)
# T4 construct: purchased Millipore (IC50 Profiler Express service)
# Description: as §1, §2
# STK33(h) = STK33(h) (Homo sapiens, UniProt Q9BYT3)
# Description: as §1, §2
# Chain of FGFR3(h) (P22607 23-806): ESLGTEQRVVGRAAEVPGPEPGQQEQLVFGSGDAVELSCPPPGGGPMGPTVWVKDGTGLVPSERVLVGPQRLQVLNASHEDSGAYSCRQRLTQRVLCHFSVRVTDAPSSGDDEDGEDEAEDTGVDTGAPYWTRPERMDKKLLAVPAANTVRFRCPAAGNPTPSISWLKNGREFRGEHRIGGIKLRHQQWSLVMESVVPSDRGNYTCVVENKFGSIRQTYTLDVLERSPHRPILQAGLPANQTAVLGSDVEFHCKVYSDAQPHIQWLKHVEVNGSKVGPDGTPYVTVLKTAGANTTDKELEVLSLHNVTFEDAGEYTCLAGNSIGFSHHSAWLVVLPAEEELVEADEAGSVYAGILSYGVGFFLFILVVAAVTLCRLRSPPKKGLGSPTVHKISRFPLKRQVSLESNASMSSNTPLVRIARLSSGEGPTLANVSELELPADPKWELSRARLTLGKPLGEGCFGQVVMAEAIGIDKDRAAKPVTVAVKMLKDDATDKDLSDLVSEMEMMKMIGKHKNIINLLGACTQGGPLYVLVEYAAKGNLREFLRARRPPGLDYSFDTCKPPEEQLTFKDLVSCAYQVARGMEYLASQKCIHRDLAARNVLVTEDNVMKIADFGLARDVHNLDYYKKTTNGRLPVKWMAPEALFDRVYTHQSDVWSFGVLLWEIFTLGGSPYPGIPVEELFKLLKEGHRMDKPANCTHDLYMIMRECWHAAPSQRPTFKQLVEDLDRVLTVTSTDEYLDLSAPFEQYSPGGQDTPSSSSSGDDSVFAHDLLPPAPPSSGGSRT
# T3 sequence (O43353 whole entry): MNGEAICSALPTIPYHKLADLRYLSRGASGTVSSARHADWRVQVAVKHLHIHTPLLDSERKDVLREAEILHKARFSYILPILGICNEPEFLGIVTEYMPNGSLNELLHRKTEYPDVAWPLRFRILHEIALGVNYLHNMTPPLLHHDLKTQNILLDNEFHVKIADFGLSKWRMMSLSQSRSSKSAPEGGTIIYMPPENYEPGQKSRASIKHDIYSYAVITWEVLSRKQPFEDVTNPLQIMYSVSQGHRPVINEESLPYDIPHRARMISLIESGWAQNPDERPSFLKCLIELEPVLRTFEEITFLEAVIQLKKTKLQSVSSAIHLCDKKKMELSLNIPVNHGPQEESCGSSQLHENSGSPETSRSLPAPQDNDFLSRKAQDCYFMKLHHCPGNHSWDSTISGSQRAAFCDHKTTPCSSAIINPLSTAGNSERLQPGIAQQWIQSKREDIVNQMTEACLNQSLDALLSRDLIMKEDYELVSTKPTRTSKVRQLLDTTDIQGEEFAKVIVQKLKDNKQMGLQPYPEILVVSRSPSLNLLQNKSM
# Chain of Aurora-B(h) (Q96GD4 whole entry): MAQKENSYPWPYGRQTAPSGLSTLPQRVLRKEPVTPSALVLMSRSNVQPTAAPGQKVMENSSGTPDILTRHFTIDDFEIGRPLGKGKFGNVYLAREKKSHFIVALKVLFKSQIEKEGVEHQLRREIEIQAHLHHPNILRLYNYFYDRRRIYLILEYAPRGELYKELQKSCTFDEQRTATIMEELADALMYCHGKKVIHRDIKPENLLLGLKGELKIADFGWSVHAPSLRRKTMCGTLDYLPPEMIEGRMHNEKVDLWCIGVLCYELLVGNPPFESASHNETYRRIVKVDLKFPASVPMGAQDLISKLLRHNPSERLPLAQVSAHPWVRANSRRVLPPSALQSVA
# Chain of CSK(h) (P41240 whole entry): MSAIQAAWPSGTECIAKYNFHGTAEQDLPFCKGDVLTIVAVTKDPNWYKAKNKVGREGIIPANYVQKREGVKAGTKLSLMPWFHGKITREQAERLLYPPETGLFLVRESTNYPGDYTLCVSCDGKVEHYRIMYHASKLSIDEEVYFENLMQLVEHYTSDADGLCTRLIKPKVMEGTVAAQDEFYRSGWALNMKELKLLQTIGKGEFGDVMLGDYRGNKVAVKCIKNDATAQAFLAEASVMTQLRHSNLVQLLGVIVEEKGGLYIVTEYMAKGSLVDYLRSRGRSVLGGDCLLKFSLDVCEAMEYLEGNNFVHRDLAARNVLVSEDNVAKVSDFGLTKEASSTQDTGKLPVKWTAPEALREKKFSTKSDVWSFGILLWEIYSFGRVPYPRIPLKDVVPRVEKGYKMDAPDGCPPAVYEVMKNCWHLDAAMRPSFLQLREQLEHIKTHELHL
# Chain of PASK(h) (Q96RG2 whole entry): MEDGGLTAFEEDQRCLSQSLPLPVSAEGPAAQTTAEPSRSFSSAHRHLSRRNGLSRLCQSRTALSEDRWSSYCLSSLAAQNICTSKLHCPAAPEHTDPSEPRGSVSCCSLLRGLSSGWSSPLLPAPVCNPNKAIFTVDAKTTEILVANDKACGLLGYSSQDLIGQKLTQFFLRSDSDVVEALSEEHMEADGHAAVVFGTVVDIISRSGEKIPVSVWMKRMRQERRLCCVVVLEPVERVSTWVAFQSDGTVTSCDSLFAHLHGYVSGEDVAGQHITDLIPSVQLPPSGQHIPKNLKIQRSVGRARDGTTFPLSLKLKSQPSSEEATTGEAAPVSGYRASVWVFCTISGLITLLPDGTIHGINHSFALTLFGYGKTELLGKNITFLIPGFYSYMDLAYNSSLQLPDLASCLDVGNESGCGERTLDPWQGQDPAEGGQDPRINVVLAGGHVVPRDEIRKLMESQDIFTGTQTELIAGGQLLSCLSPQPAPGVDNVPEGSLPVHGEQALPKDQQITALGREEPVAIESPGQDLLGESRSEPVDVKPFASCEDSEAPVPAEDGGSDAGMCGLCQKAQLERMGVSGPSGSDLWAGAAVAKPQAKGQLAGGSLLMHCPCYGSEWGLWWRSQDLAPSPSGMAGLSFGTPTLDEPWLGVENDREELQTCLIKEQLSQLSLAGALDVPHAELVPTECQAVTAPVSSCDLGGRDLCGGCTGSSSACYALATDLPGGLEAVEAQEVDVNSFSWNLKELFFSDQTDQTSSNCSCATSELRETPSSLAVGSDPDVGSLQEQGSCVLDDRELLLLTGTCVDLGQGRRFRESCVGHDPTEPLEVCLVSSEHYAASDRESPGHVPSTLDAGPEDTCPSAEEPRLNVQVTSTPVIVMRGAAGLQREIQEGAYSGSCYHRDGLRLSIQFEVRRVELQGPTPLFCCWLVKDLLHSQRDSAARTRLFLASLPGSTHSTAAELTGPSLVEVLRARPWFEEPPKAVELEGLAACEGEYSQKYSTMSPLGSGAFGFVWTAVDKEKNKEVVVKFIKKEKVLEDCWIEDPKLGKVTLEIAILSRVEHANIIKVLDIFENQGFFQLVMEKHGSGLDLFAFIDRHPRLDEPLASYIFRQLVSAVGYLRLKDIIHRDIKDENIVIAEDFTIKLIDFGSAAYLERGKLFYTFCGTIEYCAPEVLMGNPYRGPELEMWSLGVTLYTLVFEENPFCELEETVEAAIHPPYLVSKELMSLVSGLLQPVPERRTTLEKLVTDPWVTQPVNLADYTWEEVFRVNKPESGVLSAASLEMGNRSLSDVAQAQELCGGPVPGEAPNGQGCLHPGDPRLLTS
# Chain of STK33(h) (Q9BYT3 whole entry): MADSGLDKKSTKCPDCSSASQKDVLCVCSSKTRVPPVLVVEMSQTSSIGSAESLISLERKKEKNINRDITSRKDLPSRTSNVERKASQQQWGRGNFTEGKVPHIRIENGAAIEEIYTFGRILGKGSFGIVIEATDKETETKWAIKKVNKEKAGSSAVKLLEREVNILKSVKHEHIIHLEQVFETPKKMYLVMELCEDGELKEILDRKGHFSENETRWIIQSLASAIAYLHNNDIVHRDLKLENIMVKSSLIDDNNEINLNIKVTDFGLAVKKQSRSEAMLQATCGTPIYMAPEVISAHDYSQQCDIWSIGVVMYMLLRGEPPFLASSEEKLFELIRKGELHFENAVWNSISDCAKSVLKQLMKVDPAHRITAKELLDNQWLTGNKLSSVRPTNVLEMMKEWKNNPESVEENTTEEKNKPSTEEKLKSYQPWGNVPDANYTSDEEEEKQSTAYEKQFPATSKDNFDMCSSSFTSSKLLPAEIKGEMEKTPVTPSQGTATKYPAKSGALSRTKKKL
Sequence,Aurora-B(h) % activity (Aurora-B(h)),CSK(h) % activity (CSK(h)),EphA3(h) % activity (EphA3(h)),FGFR2(h) % activity (FGFR2(h)),FGFR3(h) % activity (FGFR3(h)),MEK1(h) % activity (MEK1(h)),MST2(h) % activity (MST2(h)),PASK(h) % activity (PASK(h)),RIPK2(h) % activity (RIPK2(h)),Ret(V804M)(h) % activity (Ret(V804M)(h)),STK33(h) % activity (STK33(h))
HRRIKAWLKKIKALARQLGVAA (Mammalian) [MMI-0500],5%,2%,33%,12%,10%,21%,2%,9%,30%,36%,16%
FAKLAARLYRKALARQLGVAA [MMI-0300],128%,49%,6%,14%,–,77%,19%,29%,97%,95%,45%
YARAAARQARAKALNRQLGVA (Mammalian) [MMI-0200],166%,33%,–,73%,208%,–,–,60%,98%,–,98%
KAFAKLAARLYRKALARQLGVAA [MMI-0400],150%,16%,12%,18%,0%,77%,11%,28%,98%,87%,52%
